Results taken from paper PMC9468479.

Biological target: SARS-CoV-2 Omicron spike protein (SARS-CoV-2 B.1.1529 spike protein) (SARS-CoV-2 (Omicron)) (UniProt P0DTC2)
Assay: SPR

Urtica dioica agglutinin (UDA) (natural protein)
Kd: 11 nM
